Experiment [1] addresses T1, LNCaP细胞上表达的PSMA (human, UniProt Q04609 1-750).
T1 construct: whole, on cells; Endogenous PSMA of LNCaP cells; also used for the LNCaP membrane-fraction ELISA; also called PSMA on LNCaP cells; LNCaP细胞膜
Description: Scatchard analysis, 111In-DOTA-labelled antibody binding to a fixed number of LNCaP cells.

Experiment [2] addresses T2, 细菌表达的含有PSMA氨基酸438-750的融合蛋白 (human, UniProt Q04609 438-750).
T2 construct: range 438-750; Bacterially expressed fusion protein; also called PSMA 438-750 fusion protein
Kind of experiment: solid-phase ELISA on bacterially expressed PSMA fragment fusion proteins.

In experiment [3] the target is T3, 细菌表达的含有PSMA氨基酸1-173的融合蛋白 (human, UniProt Q04609 1-173).
T3 construct: Bacterially expressed fusion protein
The description is as above.

Experiment [4] has as its target T4, 细菌表达的含有PSMA氨基酸134-437的融合蛋白 (human, UniProt Q04609 134-437).
T4 construct: Bacterially expressed fusion protein
Described as above.

One may read the Kd as the free concentration of one partner at which half of the binding sites on the other are occupied at equilibrium, for simple one-to-one binding. A low value points to a tighter complex.

T2 sequence (Q04609 438-750): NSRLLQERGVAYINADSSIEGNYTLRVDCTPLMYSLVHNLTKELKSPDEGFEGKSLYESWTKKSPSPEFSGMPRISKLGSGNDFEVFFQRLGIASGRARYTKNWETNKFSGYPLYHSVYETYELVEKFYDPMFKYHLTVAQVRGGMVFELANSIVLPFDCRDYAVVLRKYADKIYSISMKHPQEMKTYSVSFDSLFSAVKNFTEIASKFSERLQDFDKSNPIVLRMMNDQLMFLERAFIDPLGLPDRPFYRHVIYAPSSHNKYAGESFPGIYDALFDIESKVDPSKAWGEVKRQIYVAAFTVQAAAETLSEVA
T3 sequence (Q04609 1-173): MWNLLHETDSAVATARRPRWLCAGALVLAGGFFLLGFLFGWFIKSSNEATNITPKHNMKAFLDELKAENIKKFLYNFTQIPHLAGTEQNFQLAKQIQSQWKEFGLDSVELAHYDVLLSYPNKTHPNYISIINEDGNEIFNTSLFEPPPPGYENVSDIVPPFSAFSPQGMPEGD
T1 sequence (Q04609 whole entry): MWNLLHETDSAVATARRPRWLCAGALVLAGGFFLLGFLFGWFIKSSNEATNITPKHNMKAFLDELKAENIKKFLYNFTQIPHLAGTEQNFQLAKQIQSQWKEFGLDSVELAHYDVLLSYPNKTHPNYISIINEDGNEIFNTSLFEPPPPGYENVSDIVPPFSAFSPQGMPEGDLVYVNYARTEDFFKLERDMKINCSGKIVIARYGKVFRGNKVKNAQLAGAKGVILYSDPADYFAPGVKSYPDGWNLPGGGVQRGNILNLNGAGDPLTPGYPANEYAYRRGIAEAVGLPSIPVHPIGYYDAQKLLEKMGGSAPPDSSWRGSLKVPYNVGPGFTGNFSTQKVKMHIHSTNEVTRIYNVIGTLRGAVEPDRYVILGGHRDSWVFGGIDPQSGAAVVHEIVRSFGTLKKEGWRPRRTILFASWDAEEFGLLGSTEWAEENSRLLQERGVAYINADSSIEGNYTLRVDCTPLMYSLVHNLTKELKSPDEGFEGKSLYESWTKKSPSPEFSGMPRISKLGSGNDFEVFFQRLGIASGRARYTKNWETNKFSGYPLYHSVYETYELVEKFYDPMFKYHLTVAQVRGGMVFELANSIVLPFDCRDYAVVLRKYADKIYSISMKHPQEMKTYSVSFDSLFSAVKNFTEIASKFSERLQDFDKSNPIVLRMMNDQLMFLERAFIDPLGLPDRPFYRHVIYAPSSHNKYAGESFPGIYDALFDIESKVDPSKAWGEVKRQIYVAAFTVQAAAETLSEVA
T4 sequence (Q04609 134-437): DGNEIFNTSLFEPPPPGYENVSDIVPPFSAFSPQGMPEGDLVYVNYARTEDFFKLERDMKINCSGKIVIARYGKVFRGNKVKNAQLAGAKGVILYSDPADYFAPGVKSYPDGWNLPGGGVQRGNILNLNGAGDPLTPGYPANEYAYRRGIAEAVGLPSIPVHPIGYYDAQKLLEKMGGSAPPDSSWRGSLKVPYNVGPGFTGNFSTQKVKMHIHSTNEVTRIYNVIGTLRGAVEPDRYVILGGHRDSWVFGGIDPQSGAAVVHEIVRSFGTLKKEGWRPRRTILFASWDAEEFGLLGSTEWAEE

B1: DOTA-标记的4A3 (antibody, IgG1, V domains shown)
VH: EVQLVQSGAEVKKPGESLKISCKGSGYSFTSYWIGWARQMPGKGLEWMGIIYPGDSDTRYSPSFQGQVTISADKSISTAYLQWSSLKASDTAMYYCSAANSSHWYFDLWGRGTLVTVSS
VL: EIVLTQSPATLSLSPGERATLSCRASQSVSSYLAWFQQKPGQAPRLLIYDASNRATGIPARFSGSGSGTDFTLTISSLEPEDFAVYYCQQRSNWLMYTFGQGTKLEIK
modifications: DOTA coupled through one carboxyl group to protein amino groups, sites not stated; 111In chelated in the Scatchard study
notes: 4A3 IgG1 kappa conjugated with DOTA; also called DOTA-4A3; 111 In-DOTA-标记抗体 4A3
As to B1, the Kd in experiment [1] was 0.5 nM.

B2: 人单克隆抗体(HuMAb)4A3 (antibody, V domains shown)
VH: EVQLVQSGAEVKKPGESLKISCKGSGYSFTSYWIGWARQMPGKGLEWMGIIYPGDSDTRYSPSFQGQVTISADKSISTAYLQWSSLKASDTAMYYCSAANSSHWYFDLWGRGTLVTVSS
VL: EIVLTQSPATLSLSPGERATLSCRASQSVSSYLAWFQQKPGQAPRLLIYDASNRATGIPARFSGSGSGTDFTLTISSLEPEDFAVYYCQQRSNWLMYTFGQGTKLEIK
notes: Human IgG1 kappa (γ1,κ) from a hybridoma of HuMAb mouse #17018
Take B2: the binding result in experiment [2], in experiment [3] and in experiment [4] was “no binding” each time.

B3: DOTA-标记的7F12 (antibody, IgG1, V domains shown)
VH: AVQLVQSGAEVKKPGESLKISCKGSGYSFTSFWIGWARQMPGKGLEWMGIIYPGDSDTRYSPSFQGQVTISADKSISTAYLQWSSLKASDTAMYYCATANSSFWNFDLWGRGTLVTVSS
VL: EIVLTQSPATLSLSPGERATLSCRASQSVSSYLAWYQQKPGQAPRLLIYDASNRATGIPARFSGSGSGTDFTLTISSLEPEDFAVYYCQQRSNWLMYTFGQGTKLEIK
modifications: DOTA coupled through one carboxyl group to protein amino groups, sites not stated; 111In chelated in the Scatchard study
notes: 7F12 IgG1 kappa conjugated with DOTA; also called DOTA-7F12; 111 In-DOTA-标记抗体 7F12
Consider B3, for which the Kd in experiment [1] came out at 0.5 nM.

B4: 人单克隆抗体(HuMAb)7F12 (antibody, V domains shown)
VH: AVQLVQSGAEVKKPGESLKISCKGSGYSFTSFWIGWARQMPGKGLEWMGIIYPGDSDTRYSPSFQGQVTISADKSISTAYLQWSSLKASDTAMYYCATANSSFWNFDLWGRGTLVTVSS
VL: EIVLTQSPATLSLSPGERATLSCRASQSVSSYLAWYQQKPGQAPRLLIYDASNRATGIPARFSGSGSGTDFTLTISSLEPEDFAVYYCQQRSNWLMYTFGQGTKLEIK
notes: as for B2
B4: the binding result in experiment [2], in experiment [3] and in experiment [4] was “no binding” each time.

Values taken from patent CN1652821A (dated 2005).
